Experimental data taken from patent publication US20190300618A1 (Merck Sharp & Dohme, published 2019).

Assays:
[1] = molecular target: Macaca mulatta CD27 (mmCD27), expressed on cells (Macaca mulatta (rhesus); same entry given for cynomolgus monkey); assay: flow cytometry MFI on CD8+ T cells from rhesus peripheral blood
E9A = assay: flow cytometry, CHO-K1; sub-column 1 of 2
R37A = assay: flow cytometry, CHO-K1; sub-column 1 of 2
R93A = assay: flow cytometry, CHO-K1; sub-column 1 of 2
P44A = assay: flow cytometry, CHO-K1; sub-column 1 of 2
N88A = assay: flow cytometry, CHO-K1; sub-column 1 of 2
V30A = assay: flow cytometry, CHO-K1; sub-column 1 of 2
K17A = assay: flow cytometry, CHO-K1; sub-column 1 of 2
V49A = assay: flow cytometry, CHO-K1; sub-column 1 of 2
P8A = assay: flow cytometry, CHO-K1; sub-column 1 of 2
F28A = assay: flow cytometry, CHO-K1; sub-column 1 of 2
G16A = assay: flow cytometry, CHO-K1; sub-column 1 of 2
D32A = assay: flow cytometry, CHO-K1; sub-column 1 of 2
K31A = assay: flow cytometry, CHO-K1; sub-column 1 of 2
G89A = assay: flow cytometry, CHO-K1; sub-column 1 of 2
Q41A = assay: flow cytometry, CHO-K1; sub-column 1 of 2
S63A = assay: flow cytometry, CHO-K1; sub-column 1 of 2

Macaca mulatta CD27 (mmCD27), expressed on cells (Macaca mulatta (rhesus); same entry given for cynomolgus monkey), sequence (chain, as listed by the source): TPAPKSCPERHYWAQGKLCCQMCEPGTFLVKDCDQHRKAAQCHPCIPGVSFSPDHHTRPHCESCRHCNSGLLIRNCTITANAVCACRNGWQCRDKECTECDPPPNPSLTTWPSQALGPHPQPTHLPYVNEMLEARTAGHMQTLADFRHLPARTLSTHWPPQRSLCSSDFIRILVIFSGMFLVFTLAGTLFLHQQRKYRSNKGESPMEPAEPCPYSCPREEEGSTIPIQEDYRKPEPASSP

Substance: 1F5 hIgG1 (antibody)
- EC50 [1]: 1.92 nM
- % of WT hCD27 binding (geo mean FITC) (E9A): 95.4%
- % of WT hCD27 binding (geo mean FITC) (R37A): 109%
- % of WT hCD27 binding (geo mean FITC) (R93A): 120%
- % of WT hCD27 binding (geo mean FITC) (P44A): 150%
- % of WT hCD27 binding (geo mean FITC) (N88A): 153%
- % of WT hCD27 binding (geo mean FITC) (V30A): 171%
- % of WT hCD27 binding (geo mean FITC) (K17A): 95.1%
- % of WT hCD27 binding (geo mean FITC) (V49A): 143%
- % of WT hCD27 binding (geo mean FITC) (P8A): 82.5%
- % of WT hCD27 binding (geo mean FITC) (F28A): 113%
- % of WT hCD27 binding (geo mean FITC) (G16A): 96%
- % of WT hCD27 binding (geo mean FITC) (D32A): 115%
- % of WT hCD27 binding (geo mean FITC) (K31A): 205%
- % of WT hCD27 binding (geo mean FITC) (G89A): 103%
- % of WT hCD27 binding (geo mean FITC) (Q41A): 104%
- % of WT hCD27 binding (geo mean FITC) (S63A): 144%
